Data as given in patent US6699969.

Biological target: taxol-stabilized microtubules prepared from bovine brain tubulin, P81947
Sequence (P81947 whole entry, chain 1 of 2): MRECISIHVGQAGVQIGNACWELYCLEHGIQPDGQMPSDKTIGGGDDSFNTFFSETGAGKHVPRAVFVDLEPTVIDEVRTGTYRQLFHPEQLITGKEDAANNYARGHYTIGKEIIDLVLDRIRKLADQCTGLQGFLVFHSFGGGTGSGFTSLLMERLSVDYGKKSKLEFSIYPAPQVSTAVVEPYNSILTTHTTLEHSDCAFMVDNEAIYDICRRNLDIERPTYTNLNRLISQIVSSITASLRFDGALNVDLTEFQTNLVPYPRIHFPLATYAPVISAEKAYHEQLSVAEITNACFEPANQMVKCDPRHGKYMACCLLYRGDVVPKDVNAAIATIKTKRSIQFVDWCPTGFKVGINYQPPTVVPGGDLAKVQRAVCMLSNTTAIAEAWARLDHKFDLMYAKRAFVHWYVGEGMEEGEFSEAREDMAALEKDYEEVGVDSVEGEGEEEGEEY
Sequence (chain, as listed by the source, chain 2 of 2): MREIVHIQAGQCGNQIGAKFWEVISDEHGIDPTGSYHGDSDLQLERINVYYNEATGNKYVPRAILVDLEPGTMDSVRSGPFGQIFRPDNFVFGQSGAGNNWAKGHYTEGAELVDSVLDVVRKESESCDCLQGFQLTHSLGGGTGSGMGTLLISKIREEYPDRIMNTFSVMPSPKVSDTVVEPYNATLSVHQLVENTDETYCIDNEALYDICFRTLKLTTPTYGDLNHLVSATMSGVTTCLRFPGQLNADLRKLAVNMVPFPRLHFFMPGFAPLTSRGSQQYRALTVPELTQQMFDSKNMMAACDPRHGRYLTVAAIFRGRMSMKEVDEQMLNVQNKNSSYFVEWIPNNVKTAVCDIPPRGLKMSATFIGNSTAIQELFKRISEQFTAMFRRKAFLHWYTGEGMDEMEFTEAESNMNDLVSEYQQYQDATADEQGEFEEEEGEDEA

B1: baculovirus co-expressed S. purpuratus katanin p60/p80 heterodimer, each subunit with N-terminal His(6) tag (protein)
chain 1: MSVDEICENTKMGREYALLGNYETSLVYYQGVLQQIQKLLTSVHEPQRKHQWQTIRQELSQEYEHVKNITKTLNGFKSEPAAPEPAPNHGRAAPFSHHQHAAKPAAAEPARDPDVWPPPTPVDHRPSPPYQRAARKDPPRRSEPSKPANRAPGNDRGGRGPSDRRGDARSGGGGRGGARGSDKDKNRGGKSDKDKKAPSGEEGDEKKFDPAGYDKDLVENLERDIVQRNPNVHWADIAGLTEAKRLLEEAVVLPLWMPDYFKGIRRPWKGVLMVGPPGTGKTMLAKAVATECGTTFFNVSSASLTSKYHGESEKLVRLLFEMARFYAPSTIFIDEIDSICSKRGTGSEHEASRRVKSELLIQMDGVSGPSAGEESSKMVMVLAATNFPWDIDEALRRRLEKRIYIPLPEIDGREQLLRINLKEVPLADDIDLKSIAEKMDGYSGADITNVCRDASMMAMRRRIQGLRPEEIRHIPKEELNQPSTPADFLLALQKVSKSVGKEDLVKYMAWMEEFGSV
chain 2: MATKRAWKLQELVAHSSNVNCLALGPMSGRVMVTGGEDKKVNLWAVGKQNCIISLSGHTSPVDSVKFNSSEELVVAGSQSGTMKIYDLEPAKIVRTLTGHRNSIRCMDFHPFGEFVASGSTDTNVKLWDVRRKGCIYTYKGHSDQVNMIKFSPDGKWLVTASEDTTIKLWDLTMGKLFQEFKNHTGGVTGIEFHPNEFLLASGSSDRTVQFWDLETFQLVSSTSPGASAVRSISFHPDGSYLFCSSQDMLHAFGWEPIRCFDTFSVFWGKVADTVIASTQLIGASFNATNVSVYVADLSRMSTTGIAQEPQSQPSKTPSGGAEEVPSKPLTASGRKNFVRERPHTTSSKQRQPDVKSEPERQSPTQDEGVKDDDATDIKDPDSYAKIFSPKTRVDHSPERNAQPFPAPLDVPGAQEPEPFKHPPKPAAAAAVAPVSRAPAPSASDWQPAQANPAPNRVPAATKPVPAQEVAPSRKPDPISTIIPSDRNKPANLDMDAFLPPAHAQQAPRVNAPASRKQSDSERIEGLRKGHDSMCQVLSSRHRNLDVVRAIWTAGDAKTSVESVVNMKDQAILVDILNIMLLKKSLWNLDMCVVVLPRLKELLSSKYENYVHTSCACLKLILKNFTSLFNQNIKCPPSGIDITREERYNKCSKCYSYLIATRGYVEEKQHVSGKLGSSFRELHLLLDQLE
ATPase activity (ATP turnover), stimulation by microtubules: this activity was stimulated ~10-fold by microtubules | maximal microtubule-stimulated ATPase rate: maximal microtubule-stimulated rate of 3 ATP/katanin/sec | microtubule concentration at peak ATPase stimulation: peak at ~2 uM tubulin | microtubule severing, fluorescence microscopy assay: Both p60 and p60/p80 severed microtubules in this assay

B2: baculovirus-expressed S. purpuratus katanin p60 subunit with N-terminal His(6) tag (protein)
chain: MSVDEICENTKMGREYALLGNYETSLVYYQGVLQQIQKLLTSVHEPQRKHQWQTIRQELSQEYEHVKNITKTLNGFKSEPAAPEPAPNHGRAAPFSHHQHAAKPAAAEPARDPDVWPPPTPVDHRPSPPYQRAARKDPPRRSEPSKPANRAPGNDRGGRGPSDRRGDARSGGGGRGGARGSDKDKNRGGKSDKDKKAPSGEEGDEKKFDPAGYDKDLVENLERDIVQRNPNVHWADIAGLTEAKRLLEEAVVLPLWMPDYFKGIRRPWKGVLMVGPPGTGKTMLAKAVATECGTTFFNVSSASLTSKYHGESEKLVRLLFEMARFYAPSTIFIDEIDSICSKRGTGSEHEASRRVKSELLIQMDGVSGPSAGEESSKMVMVLAATNFPWDIDEALRRRLEKRIYIPLPEIDGREQLLRINLKEVPLADDIDLKSIAEKMDGYSGADITNVCRDASMMAMRRRIQGLRPEEIRHIPKEELNQPSTPADFLLALQKVSKSVGKEDLVKYMAWMEEFGSV
microtubule concentration at peak ATPase stimulation: peak at ~2 uM tubulin | microtubule severing, fluorescence microscopy assay: Both p60 and p60/p80 severed microtubules in this assay | microtubule-stimulated ATPase activity: p60 alone displayed a microtubule-stimulated ATPase activity
